In article PMC4872126:

Tests used:
Experiment in all cases: fluorescence anisotropy
Details in all cases: 50 mM Tris-HCl pH 8.0, 50 mM NaCl, 1 mM DTT, 25 C; 200 nM protein, 5 nM 3'-fluorescein DNA
BLM full-length (human) = BLM full-length (human) (UniProt P54132)
[1] = biological target: RecQ E. coli (Escherichia coli) (UniProt P15043)
BLM642-1290 (human) = BLM642-1290 (human) (UniProt P54132)
Sequence of BLM642-1290 (human) (P54132 642-1290): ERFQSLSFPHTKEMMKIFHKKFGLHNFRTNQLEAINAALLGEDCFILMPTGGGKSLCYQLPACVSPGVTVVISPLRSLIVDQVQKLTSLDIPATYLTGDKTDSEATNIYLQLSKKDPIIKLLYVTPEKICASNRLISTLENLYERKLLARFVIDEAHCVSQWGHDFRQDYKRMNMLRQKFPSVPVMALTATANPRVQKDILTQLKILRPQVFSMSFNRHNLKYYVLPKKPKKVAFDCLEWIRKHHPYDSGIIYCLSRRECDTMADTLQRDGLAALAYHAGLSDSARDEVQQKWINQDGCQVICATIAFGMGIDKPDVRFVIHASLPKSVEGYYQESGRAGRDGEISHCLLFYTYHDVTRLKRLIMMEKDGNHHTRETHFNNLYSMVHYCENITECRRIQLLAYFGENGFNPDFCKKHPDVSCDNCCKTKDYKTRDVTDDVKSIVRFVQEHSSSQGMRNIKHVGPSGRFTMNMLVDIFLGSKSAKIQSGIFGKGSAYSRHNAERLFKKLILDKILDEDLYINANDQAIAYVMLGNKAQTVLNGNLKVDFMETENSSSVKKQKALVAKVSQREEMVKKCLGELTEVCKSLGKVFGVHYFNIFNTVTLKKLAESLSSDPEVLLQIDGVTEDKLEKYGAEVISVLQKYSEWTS

Sequence of RecQ E. coli (Escherichia coli) (P15043 whole entry): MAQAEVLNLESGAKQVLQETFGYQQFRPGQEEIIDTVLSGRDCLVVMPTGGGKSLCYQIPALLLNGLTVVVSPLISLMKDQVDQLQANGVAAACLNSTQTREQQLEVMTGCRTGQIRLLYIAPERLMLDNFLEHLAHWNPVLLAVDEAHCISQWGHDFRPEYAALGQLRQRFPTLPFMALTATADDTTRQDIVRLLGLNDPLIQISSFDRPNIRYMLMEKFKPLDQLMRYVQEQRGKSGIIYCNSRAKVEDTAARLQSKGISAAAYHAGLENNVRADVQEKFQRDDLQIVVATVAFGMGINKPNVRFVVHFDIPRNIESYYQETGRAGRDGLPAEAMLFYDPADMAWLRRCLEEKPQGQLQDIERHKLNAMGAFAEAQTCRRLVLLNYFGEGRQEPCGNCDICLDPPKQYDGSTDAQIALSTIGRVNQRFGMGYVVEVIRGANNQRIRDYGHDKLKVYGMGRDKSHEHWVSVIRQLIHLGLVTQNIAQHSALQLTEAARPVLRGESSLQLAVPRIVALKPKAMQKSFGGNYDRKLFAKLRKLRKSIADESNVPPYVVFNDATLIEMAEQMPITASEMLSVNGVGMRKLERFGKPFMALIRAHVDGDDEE
Sequence of BLM full-length (human) (P54132 whole entry): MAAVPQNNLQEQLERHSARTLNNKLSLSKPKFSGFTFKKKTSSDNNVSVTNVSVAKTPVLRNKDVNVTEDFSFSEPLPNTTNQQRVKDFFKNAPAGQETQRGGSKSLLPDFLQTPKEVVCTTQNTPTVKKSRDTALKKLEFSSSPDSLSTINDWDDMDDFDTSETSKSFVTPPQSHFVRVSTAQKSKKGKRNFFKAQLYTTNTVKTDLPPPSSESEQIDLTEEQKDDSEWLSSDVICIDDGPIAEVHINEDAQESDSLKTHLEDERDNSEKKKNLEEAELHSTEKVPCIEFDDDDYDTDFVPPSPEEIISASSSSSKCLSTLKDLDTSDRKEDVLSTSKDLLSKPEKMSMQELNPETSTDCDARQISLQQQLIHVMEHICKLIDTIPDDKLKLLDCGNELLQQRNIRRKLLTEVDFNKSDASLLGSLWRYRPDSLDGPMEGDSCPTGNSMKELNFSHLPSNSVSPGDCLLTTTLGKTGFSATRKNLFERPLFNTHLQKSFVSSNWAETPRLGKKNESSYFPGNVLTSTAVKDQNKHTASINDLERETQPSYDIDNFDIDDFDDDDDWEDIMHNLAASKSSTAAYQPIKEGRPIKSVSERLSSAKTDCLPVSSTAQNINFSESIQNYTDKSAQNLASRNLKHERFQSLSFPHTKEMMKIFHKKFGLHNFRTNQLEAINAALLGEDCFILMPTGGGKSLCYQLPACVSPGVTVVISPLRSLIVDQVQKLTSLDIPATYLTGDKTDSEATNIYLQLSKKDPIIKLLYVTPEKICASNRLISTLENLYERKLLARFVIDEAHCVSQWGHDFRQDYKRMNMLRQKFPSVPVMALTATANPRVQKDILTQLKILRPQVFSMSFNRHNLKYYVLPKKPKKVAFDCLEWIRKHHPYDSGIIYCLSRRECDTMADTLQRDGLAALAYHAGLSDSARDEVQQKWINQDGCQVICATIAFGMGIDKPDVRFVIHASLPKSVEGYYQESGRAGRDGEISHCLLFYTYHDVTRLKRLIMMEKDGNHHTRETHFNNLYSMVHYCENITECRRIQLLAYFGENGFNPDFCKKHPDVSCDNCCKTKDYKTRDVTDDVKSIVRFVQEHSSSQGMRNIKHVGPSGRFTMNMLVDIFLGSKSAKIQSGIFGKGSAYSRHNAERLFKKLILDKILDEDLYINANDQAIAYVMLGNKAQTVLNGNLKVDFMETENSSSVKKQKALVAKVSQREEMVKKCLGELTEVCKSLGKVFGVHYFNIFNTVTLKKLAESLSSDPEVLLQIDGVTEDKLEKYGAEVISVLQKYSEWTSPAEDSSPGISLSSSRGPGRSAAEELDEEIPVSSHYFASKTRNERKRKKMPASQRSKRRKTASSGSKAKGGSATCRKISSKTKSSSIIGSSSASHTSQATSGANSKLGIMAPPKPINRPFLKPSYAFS

Sequence: GCCCTGCTGCCGACCAACGAAGGT (double strand) [F-24 ds]
- IC50 (BLM full-length (human)): 6.84 µM
- IC50 [1]: 44.1 µM
- IC50 (BLM642-1290 (human)): 8.17 µM
